The target of series [1] is T1, von Willebrand factor full length (Homo sapiens, UniProt P04275 SEQ:764-2813). Kind of series: filter; DPBS, 0.1 mg/mL BSA, RT. The note with it: tags: Calbiochem 681300; label: 5'-32P. As to the method: Minimers were tested for direct binding to full length human vWF (SEQ ID NO 7), and rabbit vWF A1 domain (SEQ ID NO 6) using a 9 point protein titration (100 nM, 30 nM, 10 nM, 3 nM, 1 nM, 300 pM, 100 pM, 30 pM, 0 pM) (see FIG. 6) in 1×Dulbecco's PBS containing 0.1 mg/mL BSA (final volume of 50 uL) for 30 minutes at room temperature and then applied to a nitrocellulose and nylon filter sandwich in a dot blot apparatus (Schleicher and Schuell, Keene, N.H.). KD values were calculated by fitting the equation y=(max/(1+K/protein))+yint using KaleidaGraph (KaleidaGraph v. 3.51, Synergy Software).

The target of series [2] is T1, von Willebrand factor full length. Kind of series: cell_activity; IC90 BIPA in human platelet rich plasma. The method, then:
In order to determine the activity of aptamers on live human platelets, BIPA assays were done using freshly prepared platelet rich plasma. Blood was obtained from healthy human donors who had not taken NSAIDS for at least five days. […] Collected blood was pooled into 15 mL conical tubes and was spun at 200 g for 20 minutes. The turbid, yellow layer of platelet rich plasma (“PRP”) was withdrawn from the tubes, pooled, and set aside at room temperature. The remaining blood was spun at 2500 g for ten minutes. The clarified layer of plasma, known as platelet poor plasma (“PPP”), was withdrawn and set aside at room temperature. PRP was aliquoted into cuvettes containing stir bars at a volume of 470 uL. A sample of 500 uL of PPP was aliquoted into a cuvette and placed in the PPP reference cell of the platelet aggregometer. Samples of PRP were prewamed at 37 degrees C. in the platelet aggregometer for 3-5 minutes before being used in BIPA assays. First, the concentration of botrocetin needed to induce platelet aggregation for each individual donor was determined by titration. This concentration of botrocetin was used for the remainder of the experiment. Next, aptamer was assayed by adding titrations of aptamer (zero, 1 nM to 1000 nM) to prewarmed PRP for one minute, followed by addition of botrocetin. With platelet aggregation, an increase in amplitude of light transmission is seen (FIG. 8). The concentration at which platelet aggregation is blocked at 90% or greater after 6 minutes is reported in the final column of Table 26.

In series [3] the target is von Willebrand factor A1 domain (Homo sapiens, UniProt P04275 SEQ:13-246). Kind of series: filter; no binding. The note with it: label: 5'-32P.
Series [4] addresses T1, von Willebrand factor full length. Kind of series: filter; 25.6% bound at 100 nM vWF. The note with it: tags: Calbiochem 681300; label: 5'-32P. As to the method: (§1) For KD determination, chemically synthesized aptamers were purified using denaturing polyacrylamide gel electrophoresis, 5′end labeled with γ-³²P ATP and were tested for direct binding to full length human vWF (Calbiochem Cat.# 681300, La Jolla, Calif.). An 8 point protein titration was used in the dot blot binding assay (100 nM, 30 nM, 10 nM, 3 nM, 1 nM, 300 pM, 100 pM, 0 pM)) in 1× Dulbecco's PBS containing […] (final volume of 50 uL) for 30 minutes at room temperature. KD values were calculated by fitting the equation y=(max/(1+K/protein))+yint using KaleidaGraph (KaleidaGraph v. 3.51, Synergy Software).

For series [5] the target is unchanged. Kind of series: filter; no binding. The note with it: tags: Calbiochem 681300; label: 5'-32P. The method, then:
as §1

Series [6] has the same target. Kind of series: filter; 46% bound at 100 nM vWF. The following applies: tags: Calbiochem 681300; label: 5'-32P. The method, then: as §1
Series [7] shares this target. Kind of series: filter; 25% bound at 100 nM vWF. The note with it: tags: Calbiochem 681300; label: 5'-32P. As to the method:
as §1

For series [8] the target is unchanged. Kind of series: filter; 49% bound at 100 nM. The following applies: tags: Calbiochem 681300. As to the method: as §1
For series [9] the target is unchanged. Kind of series: filter; 50% bound at 100 nM vWF. The following applies: tags: Calbiochem 681300; label: 5'-32P. The method, then:
as §1

The target is the same in series [10]. Kind of series: filter; 36% bound at 100 nM vWF. The note with it: tags: Calbiochem 681300; label: 5'-32P. As to the method:
as §1

The target is the same in series [11]. Kind of series: filter; 45% bound at 100 nM. The note with it: tags: Calbiochem 681300. The method, then:
as §1

Series [12] has the same target. Kind of series: filter; 50% bound at 100 nM. The following applies: tags: Calbiochem 681300. As to the method: as §1
Series [13] has the same target. Kind of series: filter; 37% bound at 100 nM vWF. The note with it: tags: Calbiochem 681300; label: 5'-32P. As to the method: as §1
For series [14] the target is unchanged. Kind of series: filter; 37% bound at 100 nM. The note with it: tags: Calbiochem 681300. As to the method: as §1
The target is the same in series [15]. Kind of series: filter; 28% bound at 100 nM vWF. The following applies: tags: Calbiochem 681300; label: 5'-32P. As to the method:
as §1

Series [16] shares this target. Kind of series: filter; 39% bound at 100 nM. The note with it: tags: Calbiochem 681300. As to the method: as §1
Series [17] has the same target. Kind of series: filter; 21% bound at 100 nM vWF. The note with it: tags: Calbiochem 681300; label: 5'-32P. The method, then:
as §1

Series [18] shares this target. Kind of series: filter; only 6% bound at 100 nM vWF. The note with it: tags: Calbiochem 681300; label: 5'-32P. The method, then: as §1
The target is the same in series [19]. Kind of series: filter; 48.3% bound at 100 nM vWF. The note with it: tags: Calbiochem 681300; label: 5'-32P. As to the method: as §1
Series [20] has the same target. Kind of series: filter; no binding. The note with it: tags: Calbiochem 681300; label: 5'-32P. This is another data set of the same source.

GGCGTGCAGTGCCTATTCTAGGCCGTGCGGTGCCTCCGTCACGCC (ssDNA, 3'-idT) [ARC1027]: the Kd in [1] worked out at 0.8 nM.

B1: ARC1779 (mixed)
mixed: GCGUGCAGUGCCUUCGGCCGTGCGGTGCCUCCGUCACGC
modifications: 2'-OMe at 1-4,8-18,20,22,27,28,30,33,34,36-39, rest deoxy; PS between 20 and 21; 5'-PEG20K-hexylamine; 3'-idT
In series [2], B1 came in with an activity of about 100 nM.

B2: ARC1780 (mixed)
mixed: B1 mixed
modifications: 2'-OMe at 1-4,8-18,20,22,27,28,30,33,34,36-39, rest deoxy; PS between 20 and 21; 5'-PEG40K-hexylamine; 3'-idT [2'-OMe at 1-4,8-18,20,22,27,28,30,33,34,36-39, rest deoxy; PS between 20 and 21 (printed S left out); 5'-PEG40K-hexylamine (left out); 3'-idT at 40]
B2 returned an activity in series [2] of about 100 nM. Take CGATCTGACTAGCGGAATGAGAATGCTGGTGGATCG (ssDNA) [DNA1 minimer SEQ 206]: the binding result in series [3] is “no binding”. Take CGGCCGTGCGGTGCCUCCGUCACUUUGUGCAGUGCCG (mixed, 2'-OMe/deoxy composite, single PS, 3'-idT) [ARC1534]: the Kd in series [4] turned out to be 62.8 nM. For the molecule GGCGUGCAGUGCUUCGCCGTGCGGTGCCUCCGUCACGCC (mixed, 2'-OMe/deoxy composite, 3'-idT) [ARC1347], in series [5], the binding result was “no binding”.

With GGCGTGCAGTGCCTTCGGCCGTGCGGTGCCTCCGTCACGCC (ssDNA, single PS between G21 and T22, 3'-idT) [ARC1759], in [6], the Kd turned out to be 0.7 nM. On to GGCGTGCAGTGCCTTCGGCCGTGCGGTGCCTCCGTCACGCC (ssDNA, 2'-OMe C33, 3'-idT) [ARC1226], for which the Kd in [7] came out at 12 nM. On to GGCGTGCAGTGCCTTCGGCCGTGCGGTGCCTCCGTCACGCC (ssDNA, 2'-OMe at 17; 3'-idT) [ARC1210], for which, in series [8], the Kd was found to be 2 nM.

As for GGCGUGCAGTGCCTTCGGCCGTGCGGTGCCTCCGTCACGCC (ssDNA, 2'-OMe U5, 3'-idT) [ARC1198], in series [9], the Kd was 0.9 nM. Turning to GGCGTGCAGTGCCTTCGGCCGTGCGGTGCCTCCGTCACGCC (ssDNA) [ARC1115], the Kd in series [10] turned out to be 2 nM. GGCGTGCAGTGCCTUCGGCCGTGCGGTGCCTCCGTCACGCC (ssDNA, 2'-OMe at 15 (mU); 3'-idT) [ARC1208]: the Kd in [11] came out at 2 nM.

As to GGCGTGCAGTGCCTTCGGCCGTGCGGTGCCTCCGTCACGCC (ssDNA, 2'-OMe at 12; 3'-idT) [ARC1205], the dissociation constant Kd in series [12] stood at 1 nM. As to GGCGTGCAGTGCCTTCGGCCGTGCGGTGCCTCCGTCACGCC (ssDNA, 3'-idT) [ARC1172], in [13], the Kd is 2 nM. GGCGTGCAGTGCCTTCGGCCGTGCGGTGCCTCCGTCACGCC (ssDNA, 2'-OMe at 38; 3'-idT) [ARC1231]: the Kd in series [12] amounted to 1 nM. Still for that read-out and setting: under GGCGTGCAGTGCCTTCGGCCGTGCGGTGCCTCCGTCACGCC (ssDNA, 2'-OMe at 13; 3'-idT) [ARC1206] stands 2 nM. As to GGCGTGCAGTGCCTTCGGCCGTGCGGTGCCTCCGTCACGCC (ssDNA, 2'-OMe at 36; 3'-idT) [ARC1229], the Kd in series [14] stood at 5 nM. As for GGCGTGCAGTGCCTTCGGCCGTGCGGTGCCTCCGTCACGCC (ssDNA, 2'-OMe G6, 3'-idT) [ARC1199], the Kd in [15] is 19 nM. On to GGCGTGCAGTGCCTTCGGCCGTGCGGTGCCTCCGTCACGCC (ssDNA, 2'-OMe at 11; 3'-idT) [ARC1204], for which the Kd in series [11] came out at 2 nM. Take GGCGTGCAGTGCCTTCGGCCGTGCGGTGCCTCCGTCACGCC (ssDNA, 2'-OMe at 12,13,19; 3'-idT) [ARC1239]: the Kd in series [14] amounted to 5 nM. With GGCGTGCAGTGCCTTCGGCCGTGCGGTGCCTCCGTCACGCC (ssDNA, 2'-OMe at 19; 3'-idT) [ARC1212], the Kd in [8] amounted to 2 nM. Turning to GGCGTGCAGTGCCTTCGGCCGTGCGGTGCCTCCGTCACGCC (ssDNA, 2'-OMe at 21; 3'-idT) [ARC1214], in series [16], the Kd worked out at 3 nM. In series [2], GGCGTGCAGTGCCTTCGGCCGTGCGGTGCCTCCGTCACGCC (ssDNA, 5'-PEG20K-hexylamine; 3'-idT) [ARC1885] had an activity of about 50 nM.

Take GGCGUGCAGTGCCTTCGGCCGTGCGGTGCCTCCGTCACGCC (mixed, 2'-OMe at 1-5 and 37-41, 3'-idT) [ARC1338]: the Kd in series [17] was 7.4 nM. Take GGCGTGCAGTGCCTTCGGCCGTGCGGTGCCTCCGTCACGCC (ssDNA, 2'-OMe A8, 3'-idT) [ARC1201]: in series [18], the equilibrium dissociation constant (Kd) came out at 0.9 nM. As for GGCGTGCAGTGCCTTCGGCCGTGCGGTGCCTCCGTCACGCC (ssDNA, 2'-OMe C7, 3'-idT) [ARC1200], in series [7], the Kd turned out to be 5 nM.

GGCGTGCAGTGCCTTCGGCCGTGCGGTGCCTCCGTCACGCC (ssDNA, 2'-OMe at 40; 3'-idT) [ARC1233]: the Kd in [16] was determined as 2 nM.

Turning to GCGUGCAGUGCUUCGCCGTGCGGTGCCUCCGUCACGC (mixed, 2'-OMe/deoxy composite, 3'-idT) [ARC1348], the binding result in series [5] is listed as “no binding”. Take CCAGCGGAATGAGAATGCTGATGGATTGCTCAGGTCTGCTGG (ssDNA) [DNA1 minimer SEQ 204]: the binding result in series [3] is recorded as “no binding”. Turning to CCGGCCGTGCGGTGCCUCCGUCACUUUGUGCAGUGCCGG (mixed, 2'-OMe/deoxy composite, single PS, 3'-idT) [ARC1535], the Kd in series [19] amounted to 27.1 nM. Take GGCGUGCAGUGCCUUCGGCCGTGCGGTGCCUCCGUCACGCC (mixed, 2'-OMe/deoxy composite with 4 PS as printed in Table 22, 3'-idT) [ARC1343]: the Kd in [17] was found to be 23.9 nM. Take ATGAGAGTGCTGGTGGATTGCTCAGGTCTGCTGGCTGCTTACTCTCAT (ssDNA) [ARC845]: the binding result in [20] is listed as “no binding”.

These data come from US20060264369, “Aptamers to von Willebrand Factor and their use as thrombotic disease therapeutics” (published 2006).
